Assay results reported in a protein production outcome set (Wang et al. 2014).

Test: label from the status in PepcDB records

Row | Sequence | protein production
1 | MFQTGGLIVFYGLLAQTMAQFGGLPVPLDQTLPLNVNPALPLSPTGLAGSLTNALSNGLLSGGLLGILENLPLLDILKPGGGTSGGLLGGLLGKVTSVIPGLNNIIDIKVTDPQLLELGLVQSPDGHRLYVTIPLGIKLQVNTPLVGASLLRLAVKLDITAEILAVRDKQERIHLVLGDCTHSPGSLQISLLDGLGPLPIQGLLDSLTGILNKVLPELVQGNVCPLVNEVLRGLDITLVHDIVNMLIHGLQFVIKV | failed
2 | MPTINQLIRKERKKVVKKTKSPALVECPQRRGVCTRVYTTTPKKPNSALRKVAKVRLTSKFEVISYIPGEGHNLQEHSIVLVRGGRVKDLPGVKYHIVRGALDTAGVNKRTVSRSKYGTKKAKATDKKATDNKKK | failed
3 | MNIILNVFLIFVSAILTKLFALFAQHTKLIDIPNERNLHSRPTVRGGGLVFIGLSLFCWFFICNSQFFLTLDQFIFSIAIIFIATISFIDDFYNLSVTIRFFFQCLIAFLIVIFILPSQLDFGLFLFENTYLIAFFLFFAVIWAINHFNFMDGLDGFCASQAIFLLAAYALFFNSAGSLIYQDFCLILISSLAGFLIFNFPPAKIFMGDVGSASLGLITFFIAIIAQKNYQIPILYWFILNSLFLFDSTVTLIRRIIKHEKWFSPHKKHAYQRLKQLGINSRFILLGQAIINGSLFLSVMFMHFQFFNLKNLIIIQLCYLSAIYFFIEKKYPME | failed
4 | MGIMELARIDLSRDDLDKRIGGGIPHGSLIIIEGEESTGKSVLCQRLAYGFLQNRYSVTYVSTQLTTLEFIKQMNSLNYSINKKLLSGALLYIPVYPLIADNKKKDGFLKKVMETRAFYEKDVIIFDSISALIANDASEVNVDDLMAFFKRITALKKIIICTVNPKELPESVLTIIRTSATMLIRTELFTFGGDLKNLAKILKYNMAPGSYQKNIVFRVEPKIGIAVEIASVALEHHHHHH | not failed
5 | MASFVESGWQYLVTHFSDFQLACIGSFLLHESVFFLSGLPFIFLERQGFLSKYKIQTKNNTPAAQGKCITRLLLYHFSVNLPLMLASYPVFRAMGMRSSFPLPSWKEVSAQILFYFIIEDFVFYWGHRILHSKWLYKNVHSVHHEYATPFGLTSEYAHPAEILFLGFATIVGPALTGPHLITLWLWMVLRVLETVEAHCGYHFPWSLSNFLPLYGGADFHDYHHRLLYTKSGNYSSTFVYMDWIFGTDKGYRRLKTLKENGDMKQT | failed
6 | MPHAARSDAAALRAPAADDGAYGKPAIALHWIIALLIFAAFGLGLYMTDIPGFTPTKLKLYSYHKWAGITVLILAVLRVLWRLTHPAPAPVAGMPAWQQKAAEGAHIVLYLLILAVPLTGYLLSVAAGIKVVYLGLWELPMPFDKSDALKEIFQVAHEWLNWTMATIVVLHILAALKHHIVDSDGTLRRMLPFLR | failed
7 | MTVAFASDQRLENGAEQLESLRRQMALLSEKVSGGPSRSGDLVPAGPVSLPPGTVGVLSGARSLLLSMVASVTAAGGNAAIVGQPDIGLLAAVEMGADLSRLAMIPDPGTDPVEVAAVLIDGMDLVVLGLGGRRVTRARARAVVARARQKGCTLLVTDGDWQGVSTRLAARVCGYEITPALRGVPTPGLGRISGVRLQINGRGR | failed
8 | MDINIGTTHKVFHVLSKIGPAWIVMMADVDVASIITGLQSGAEFGFHMIFVMLILIPPLFIVQNAAGYLGIYSGMGVGEAIRQRYGRRLALLAAIPMASTDILSYIAEYSGIAIGLYMVGVSPYISVPVVFVIHNLIVLMRRYGRIESILMIVSVGLVLFIIVSVALMKPSWHSVILTGLNPIQPYGNHDFDIMIIANLGAIIMPFMIFYQAGASVQKSLLDQDIKISRNETAIGSIVSEVLMVMIVIAGTFIGGYATEPKMLAAALLPFGTYAYYITAAGFVTAGFLALIVISLASSWGIAEALGWKLYSGRRRGMHKAQMKGLTEERSDCDRRKFIYLYMGESIPAAAIALSFSAYLLPLVIDLMIVFVLVLAPVGVLLGLLVSDQKIMNGHRLSKRYMALFWFTLAIIEIAGLYSIITSI | failed
9 | MKLRLRHHETRETLKLELADADTLHDLRRRINPTVPSSVHLSLNRKDELITPSPEDTLRSLGLISGDLIYFSLEAGESSNWKLRDSETVASQSESNQTSVHDSIGFAEVDVVPDQAKSNPNTSVEDPEGDISGMEGPEPMDVEQLDMELAAAGSKRLSEPFFLKNILLEKSGDTSELTTLALSVHAVMLESGFVLLNHGSDKFNFSKELLTVSLRYTLPELIKSKDTNTIESVSVKFQNLGPVVVVYGTVGGSSGRVHMNLDKRRFVPVIDLVMDTSTSDEEGSSSIYREVFMFWRMVKDRLVIPLLIGICDKAGLEPPPCLMRLPTELKLKILELLPGVSIGNMACVCTEMRYLASDNDLWKQKCLEEVNNFVVTEAGDSVNWKARFATFWRQKQLAAASDTFWRQNQLGRRNISTGRSGIRFPRIIGDPPFTWFNGDRMHGSIGIHPGQSARGLGRRTWGQLFTPRCNLGGLN | failed
10 | MLGLLRRLFDNNEREIARYYKQVVEPVNRLEAEVEKLPDLAAAYRELKEKHEKGASLDELLPMAFALTRESAKRYLGMRHFDVQLIGGAVLHEGKIAEMKTGEGKTLVATLAVALNALTGKGVHVVTVNDYLARRDAEWMGPVYRGLGLSVGVIQHASTPAERRKAYLADVTYVTNSELGFDYLRDNMAISPDQLVLRHDHPLHYAIIDEVDSILIDEARTPLIISGPAEKATDLYYKMAEIAKKLERGLPAEPGVRKEPTGDYTVEEKNRSVHLTLQGIAKAEKLLGIEGLFSPENMELAHMLIQAIRAKELYHRDRDYIVQDGQVIIVDEFTGRLMPGRRYGEGLHQAIEAKEGVRIERENQTLATITYQNFFRLYEKRAGMTGTAKTEEKEFQEIYGMDVVVVPTNRPVIRKDFPDVVYRTEKGKFYAVVEEIAEKYERGQPVLVGTISIEKSERLSQMLKEPRLYLPRLEMRLELFKKASQKQQGPEWERLRKLLERPAQLKDEDLAPFEGLIPPKGNLRTAWEGLKRAVHTLAVLRQGIPHQVLNAKHHAREAEIVAQAGRSKTVTIATNMAGRGTDIKLGGNPEYLAAALLEKEGFDRYEWKVELFIKKMVAGKEEEARALAQELGIREELLERIREIREECKQDEERVRALGGLFIIGTERHESRRIDNQLRGRAGRQGDPGGSRFYVSFDDDLMRLFASDRVIAMLDRMGFDDSEPIEHPMVTRSIERAQKRVEDRNFAIRKQLLQFDDVLSRQREVIYAQRRLILLGKDEEVKEAAIGMVEETVASLAENFLNPEVHPEDWDLEGLKATLLDTAPQLQDFPFAELRALKAEEAVERLVEAALKAYEAREAELSPPLMRAVERFVILNVVDNAWKEHLHNLDVLRQGIFLRGYGQKDPFQEYKIEATRLFNEMVAFIKSEVAKFLFRLKVEAEPVRPVREAPYVPVPEAKPEPSEVFGVERKRATPPPQPGLSRAERRRLMRQEKKRKK | not failed
11 | MSVTVFIPGDSAALAVGANRVAEAIAREAASRNLDVQIVRNGSRGMLWLEVLVEVRTEHGRIAYGPVKAADVTSLFDADFLDGGDHRLCLGPTKDIPFLKNQTRLTFARCGVTDPLSLEDYRNYQGMKGLEKAVTMEPLAIVAQVTESGLRGRGGAGFPTGIKWKTVADARADQKYIVCNADEGDSGTFADRMIMEGDPFVLIEGMAIAGLAVGATKGFIYTRSEYPYAIKVMEKAIEIARREGILGSSVLGSGRAFDMEVRMGAGAYVCGEETSLLNSLEGKRGTVRAKPPLPALQGLFGKPTVVNNVISLASIPVIMDRGAAFYRDFGVGRSHGTIPIQLAGNIRYGGLYETAFGLTLGQLVNDIGGGTITGRPVKAVQVGGPLGAYFPVSLFDTIFDYEAFTAAGGLIGHAGIVVFDDTADMLHQARFALEFCAVESCGKCTPCRIGSTRGVETVDKIALGIEREKNTALLEDLCETMKFGSLCALGGFTPYPVMSALRHFPQDFAPIPRVEAAELEHHHHHH | failed
12 | AIAAASLGEFEWCVATNTFRISPRLAKLSGIPEGELDSQGGNALYAYIHPDDREAVRANIDRQLAQSGRFTAEYRRTPLEHGGETWNSVAGVMLMDADGQPSRLIGVVQDITPRKL | failed
